Here are results for 7 molecules from publication PMC5319863 (Nature, 2016).

Where a chain is given by its changes, count along the chain named. In names and notes the source's numbering stands.

In test [1] the target is T1, human Izumo1_(22-254), wild type (human, UniProt Q8IYV9-1 22-254). The experiment in a line: BLI. (In general: In BLI a coated tip is dipped into the sample, and binding shifts an interference pattern.)
Test [2] concerns the target D72A Izumo1_(22-254) (human, UniProt Q8IYV9-1 22-254, D72A). The experiment in a line: BLI.
In test [3] the target is E71A Izumo1_(22-254) (human, UniProt Q8IYV9-1 22-254, E71A). The experiment in a line: BLI.
In test [4] the target is Q130A Izumo1_(22-254) (human, UniProt Q8IYV9-1 22-254, Q130A). The test is described as follows: BLI.
The target in test [5] is E71K Izumo1_(22-254) (human, UniProt Q8IYV9-1 22-254, E71K). The experiment in a line: BLI.
Test [6] deals with H157A Izumo1_(22-254) (human, UniProt Q8IYV9-1 22-254, H157A). The test is described as follows: BLI.
Test [7] deals with R160E Izumo1_(22-254) (human, UniProt Q8IYV9-1 22-254, R160E). The experiment in a line: BLI.
In test [8] the target is R160A Izumo1_(22-254) (human, UniProt Q8IYV9-1 22-254, R160A). The test is described as follows: BLI.
Test [9] addresses T1, human Izumo1_(22-254), wild type. The experiment in a line: SPR. For orientation: SPR reads the build-up and loss of mass on a sensor chip optically.

Sequence of R160E Izumo1_(22-254) (Q8IYV9 22-254 R160E): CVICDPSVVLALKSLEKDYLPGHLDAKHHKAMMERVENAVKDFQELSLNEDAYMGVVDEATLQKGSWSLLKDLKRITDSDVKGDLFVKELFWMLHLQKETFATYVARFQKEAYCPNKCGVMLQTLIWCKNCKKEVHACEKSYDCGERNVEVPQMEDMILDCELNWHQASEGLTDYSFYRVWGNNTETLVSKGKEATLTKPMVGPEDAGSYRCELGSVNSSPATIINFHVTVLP
Sequence of H157A Izumo1_(22-254) (Q8IYV9 22-254 H157A): as the sequence (Q8IYV9 22-254 R160E) above, with H136A, E139R counted along it
Sequence of E71K Izumo1_(22-254) (Q8IYV9 22-254 E71K): as the sequence (Q8IYV9 22-254 R160E) above, with E50K, E139R counted along it
Sequence of D72A Izumo1_(22-254) (Q8IYV9 22-254 D72A): as the sequence (Q8IYV9 22-254 R160E) above, with D51A, E139R counted along it
T1 sequence (Q8IYV9 22-254): as the sequence (Q8IYV9 22-254 R160E) above, with E139R counted along it
Sequence of E71A Izumo1_(22-254) (Q8IYV9 22-254 E71A): as the sequence (Q8IYV9 22-254 R160E) above, with E50A, E139R counted along it
Sequence of R160A Izumo1_(22-254) (Q8IYV9 22-254 R160A): as the sequence (Q8IYV9 22-254 R160E) above, with E139A counted along it
Sequence of Q130A Izumo1_(22-254) (Q8IYV9 22-254 Q130A): as the sequence (Q8IYV9 22-254 R160E) above, with Q109A, E139R counted along it

B1: E45A Juno_(20-228) (domain or fragment, human, UniProt A6ND01-1 20-228, looked up)
chain: GDELLNICMNAKHHKRVPSPEDKLYAECIPWKDNACCTLTTSWEAHLDVSPLYNFSLFHCGLLMPGCRKHFIQAICFYECSPNLGPWIQPVGSLGWEVAPSGQGERVVNVPLCQEDCEEWWEDCRMSYTCKSNWRGGWDWSQGKNRCPKGAQCLPFSHYFPTPADLCEKTWSNSFKASPERRNSGRCLQKWFEPAQGNPNVAVARLFAS
modifications: biotinylated with the EZ link sulfo-NHS-LC-biotinylation kit (BLI)
For orientation: Kd means the concentration at which binding is half-saturated. One may read the koff as the first-order rate constant of dissociation. A lower koff goes with slow dissociation. As usually defined, the kon is a measure of how fast the partners come together. Read a low kon as slower complex formation. In test [1], B1 showed a Kd of 681 nM, a koff of 0.0247 s⁻¹ and a kon of 37000 M⁻¹ s⁻¹.

B2: K163E Juno_(20-228) (domain or fragment, human, UniProt A6ND01-1 20-228, looked up)
chain: B1 chain with A26E, K144E
modifications: biotinylated with the EZ link sulfo-NHS-LC-biotinylation kit (in the BLI assay only)
In test [1], B2 showed a dissociation constant (Kd) of 134 nM, an off-rate constant (koff) of 0.0242 s⁻¹ and an on-rate constant (kon) of 181000 M⁻¹ s⁻¹.

B3: E45K Juno_(20-228) (domain or fragment, human, UniProt A6ND01-1 20-228, looked up)
chain: B1 chain with A26K
modifications: biotinylated with the EZ link sulfo-NHS-LC-biotinylation kit (in the BLI assay only)
With B3, in [1], the Kd came out at 2800 nM, the off-rate (koff) worked out at 0.0624 s⁻¹ and the kon came to 23000 M⁻¹ s⁻¹.

B4: L81A Juno_(20-228) (domain or fragment, human, UniProt A6ND01-1 20-228, looked up)
chain: B1 chain with A26E, L62A
modifications: biotinylated with the EZ link sulfo-NHS-LC-biotinylation kit (BLI)
In [1], B4 returned a dissociation constant (Kd) of 9100 nM, an off-rate constant (koff) of 0.349 s⁻¹ and an on-rate (kon) of 40000 M⁻¹ s⁻¹.

B5: human Juno_(20-228), wild type (domain or fragment, UniProt A6ND01-1 20-228, looked up)
chain: B1 chain with A26E
modifications: biotinylated with the EZ link sulfo-NHS-LC-biotinylation kit (in the BLI assay only)
Consider B5, for which the Kd was determined as 71 nM in [2]; 96 nM in test [3]; 56 nM in [4]; 119 nM in test [5]; 1800 nM in [6]; 2200 nM in test [7]. The Kd was determined as 730 nM in test [8], 59 nM in test [1] and 48 nM in [9]. Moreover, the koff in test [2] was 0.0126 s⁻¹; in [3] it was 0.0137 s⁻¹; in test [4], 0.0068 s⁻¹; in test [5] it was 0.0195 s⁻¹; in test [6], 0.079 s⁻¹; in test [7] it was 0.0512 s⁻¹. For the same molecule, the koff turned out to be 0.0563 s⁻¹ in test [8], 0.0067 s⁻¹ in [1] and 0.0194 s⁻¹ in [9]. The kon is 178000 M⁻¹ s⁻¹ in test [2]; 143000 M⁻¹ s⁻¹ in test [3]; 127000 M⁻¹ s⁻¹ in test [4]; 165000 M⁻¹ s⁻¹ in test [5]; 51000 M⁻¹ s⁻¹ in [6]; 32000 M⁻¹ s⁻¹ in test [7]. For the same molecule, the kon turned out to be 78000 M⁻¹ s⁻¹ in [8], 115000 M⁻¹ s⁻¹ in [1] and 420000 M⁻¹ s⁻¹ in test [9].

B6: W62A Juno_(20-228) (domain or fragment, human, UniProt A6ND01-1 20-228, looked up)
chain: B1 chain with A26E, W43A
modifications: biotinylated with the EZ link sulfo-NHS-LC-biotinylation kit (BLI)
In test [1], B6 gave an equilibrium dissociation constant (Kd) of 361 nM, a koff of 0.0412 s⁻¹ and an association rate constant (kon) of 114000 M⁻¹ s⁻¹.

B7: K163A Juno_(20-228) (domain or fragment, human, UniProt A6ND01-1 20-228, looked up)
chain: B1 chain with A26E, K144A
modifications: biotinylated with the EZ link sulfo-NHS-LC-biotinylation kit (BLI)
In test [1], B7 had an equilibrium dissociation constant (Kd) of 97 nM, an off-rate constant (koff) of 0.0133 s⁻¹ and a kon of 138000 M⁻¹ s⁻¹.
